# T1: human FcγRIIb extracellular domain with C-terminal His-tag (human, UniProt P31994 43-217)
# T1 construct: extracellular domain; also called hFcγR IIb
# T1 sequence (looked up): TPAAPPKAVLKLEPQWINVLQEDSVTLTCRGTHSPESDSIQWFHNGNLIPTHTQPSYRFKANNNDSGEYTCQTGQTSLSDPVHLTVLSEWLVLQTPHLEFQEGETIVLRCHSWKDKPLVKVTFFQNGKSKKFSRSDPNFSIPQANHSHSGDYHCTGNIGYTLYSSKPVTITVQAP
# T2: human FcγRIIa H allotype extracellular domain with C-terminal His-tag (human, UniProt P12318 34-217)
# T2 construct: extracellular domain; also called hFcγR IIa H
# T2 sequence (looked up): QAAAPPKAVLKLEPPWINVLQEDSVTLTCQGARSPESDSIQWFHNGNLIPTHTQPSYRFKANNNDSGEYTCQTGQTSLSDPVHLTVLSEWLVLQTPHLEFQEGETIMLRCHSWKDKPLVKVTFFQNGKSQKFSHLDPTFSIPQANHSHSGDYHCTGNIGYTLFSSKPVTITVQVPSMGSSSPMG
# T3: human FcγRIIa R allotype extracellular domain with C-terminal His-tag (human, UniProt P12318 34-217)
# T3 construct: extracellular domain; also called hFcγR IIa R
# T3 sequence (looked up): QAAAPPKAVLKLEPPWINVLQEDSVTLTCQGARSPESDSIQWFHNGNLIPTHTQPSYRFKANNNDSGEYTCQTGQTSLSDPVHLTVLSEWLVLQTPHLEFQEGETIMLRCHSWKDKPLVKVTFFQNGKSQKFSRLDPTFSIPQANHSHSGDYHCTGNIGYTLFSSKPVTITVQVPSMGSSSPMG
# B1: 04H1389-G1m/04L1305-k0MT (antibody, human IgG1, kappa)
# heavy: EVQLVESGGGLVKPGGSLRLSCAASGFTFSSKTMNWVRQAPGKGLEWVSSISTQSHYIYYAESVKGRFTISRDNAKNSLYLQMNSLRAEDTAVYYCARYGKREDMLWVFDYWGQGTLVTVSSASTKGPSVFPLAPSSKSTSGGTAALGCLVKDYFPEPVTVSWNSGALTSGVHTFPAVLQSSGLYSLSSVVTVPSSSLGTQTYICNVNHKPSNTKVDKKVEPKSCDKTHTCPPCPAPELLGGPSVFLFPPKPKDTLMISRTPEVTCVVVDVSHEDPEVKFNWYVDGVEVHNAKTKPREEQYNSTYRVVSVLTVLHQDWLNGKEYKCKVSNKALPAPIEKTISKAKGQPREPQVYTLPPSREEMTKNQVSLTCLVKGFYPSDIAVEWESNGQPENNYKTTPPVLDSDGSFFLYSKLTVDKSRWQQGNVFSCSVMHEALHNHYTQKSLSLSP
# light: DIVMTQSPLSLPVTPGEPASISCDGPSTGVGDYNYVHWYQQKPGQAPRLLIYFTSKKPSGVPDRFSGSGSGTDFTLKISRVEAEDVGVYYCQTYAAPLGPMFGQGTKLEIKRTVAAPSVFIFPPSDEQLKSGTASVVCLLNNFYPREAKVQWKVDNALQSGNSQESVTEQDSKDSTYSLSSTLTLSKADYEKHKVYACEVTHQGLSSPVTKSFNRGEC
# Experiments:
# [1] = molecular target: T4, human FcRn (human, UniProt P55899 24-290; P61769 21-119); assay: SPR Biacore T200, captured Ab, pH 6.0, steady state
# T4 construct: Prepared by the method of WO 2010/107110; also called hFcRn
# [2] = molecular target: T1, human FcγRIIb extracellular domain with …; assay: SPR; FcγRIIb bound amount per unit captured Ab
# [3] = molecular target: T1, human FcγRIIb extracellular domain with …; assay: SPR; binding amount divided by that of 04H1389-G1m/04L1305-k0MT
# [4] = molecular target: T5, human FcγRIIIa V allotype extracellular domain with C-terminal His-tag (human, UniProt P08637 17-208); assay: SPR Biacore T200, captured Ab, pH 7.4, steady state model
# T5 construct: extracellular domain; also called hFcγR IIIa V
# [5] = molecular target: T6, human FcγRIa extracellular domain with C-terminal His-tag (human, UniProt P12314 16-292); assay: SPR Biacore T200, captured Ab, pH 7.4
# T6 construct: extracellular domain; also called hFcγR Ia; hFcγRIa
# [6] = molecular target: T7, human FcγRIIIa F allotype extracellular domain with C-terminal His-tag (human, UniProt P08637 17-208); assay: SPR Biacore T200, captured Ab, pH 7.4
# T7 construct: extracellular domain; also called hFcγR IIIa F
# [7] = molecular target: T2, human FcγRIIa H allotype extracellular …; assay: SPR Biacore T200, captured Ab, pH 7.4
# [8] = molecular target: T3, human FcγRIIa R allotype extracellular …; assay: SPR Biacore T200, captured Ab, pH 7.4
# [9] = molecular target: T6, human FcγRIa extracellular domain with …; assay: SPR; KD of 04H1389-G1m/04L1305-k0MT divided by KD of variant
# [10] = molecular target: T5, human FcγRIIIa V allotype extracellular …; assay: as above
# [11] = molecular target: T7, human FcγRIIIa F allotype extracellular …; assay: as above
# [12] = molecular target: T4, human FcRn; assay: as above
# [13] = molecular target: T2, human FcγRIIa H allotype extracellular …; assay: as above
# [14] = molecular target: T3, human FcγRIIa R allotype extracellular …; assay: as above
# T7 sequence (P08637 17-208): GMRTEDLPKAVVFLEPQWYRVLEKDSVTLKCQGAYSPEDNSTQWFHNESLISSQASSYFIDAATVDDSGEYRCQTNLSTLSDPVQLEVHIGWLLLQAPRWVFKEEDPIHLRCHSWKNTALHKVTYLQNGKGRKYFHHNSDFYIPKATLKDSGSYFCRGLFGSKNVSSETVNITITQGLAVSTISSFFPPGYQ
# T5 sequence (P08637 17-208 F176V): as the sequence (P08637 17-208) above, with F160V counted along it
# T6 sequence (P12314 16-292): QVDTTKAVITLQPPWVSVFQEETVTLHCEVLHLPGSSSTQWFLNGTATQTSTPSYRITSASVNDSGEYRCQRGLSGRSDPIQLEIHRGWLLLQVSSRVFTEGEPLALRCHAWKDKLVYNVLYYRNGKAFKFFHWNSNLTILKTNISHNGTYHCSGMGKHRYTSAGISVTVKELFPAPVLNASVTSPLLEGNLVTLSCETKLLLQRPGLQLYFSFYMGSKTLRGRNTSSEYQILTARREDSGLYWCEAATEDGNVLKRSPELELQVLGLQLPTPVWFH
# T4 sequence (P55899 24-290 limits assumed, chain 1 of 2): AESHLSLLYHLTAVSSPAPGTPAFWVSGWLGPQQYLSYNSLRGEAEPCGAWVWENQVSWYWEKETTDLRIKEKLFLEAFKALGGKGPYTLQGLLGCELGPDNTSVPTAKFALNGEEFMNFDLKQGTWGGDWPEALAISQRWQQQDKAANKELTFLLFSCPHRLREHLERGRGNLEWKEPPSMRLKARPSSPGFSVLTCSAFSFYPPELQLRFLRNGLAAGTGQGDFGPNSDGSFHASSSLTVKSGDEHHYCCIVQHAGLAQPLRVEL
# T4 sequence (P61769 21-119 limits assumed, chain 2 of 2): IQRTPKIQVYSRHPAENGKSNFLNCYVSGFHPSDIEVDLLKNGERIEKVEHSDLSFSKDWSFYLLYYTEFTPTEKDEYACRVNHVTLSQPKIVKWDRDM
binder,measurement,setting,value
B1,Kd,[1],1000 nM
same,Binding amount,[2],0.011
same,Relative binding amount,[3],1
same,Kd,[4],880 nM
same,Kd,[5],0.069 nM
same,Kd,[6],690 nM
same,Kd,[7],1100 nM
same,Kd,[8],1600 nM
same,Relative value to KD between G1m and hFcγRs,[9],1
same,Relative value to KD between G1m and hFcγRs,[10],1
same,Relative value to KD between G1m and hFcγRs,[11],1
same,Relative value to KD between G1m and hFcRn,[12],1
same,Relative value to KD between G1m and hFcγRs,[13],1
same,Relative value to KD between G1m and hFcγRs,[14],1
